Ki data for seven molecules are collected here from patent US20200024322A1 (Eli Lilly, published 2020).

Usually Ki stands for the equilibrium dissociation constant of an inhibitor or competing ligand from its target. The low end stands for higher affinity, the high end for lower affinity.

Numbered stars: 1 amine (or outer) side, 2 acyl side, 3 side chain; on linkers, the order of the positions; unused ones are H or OH. Square brackets hold non-standard residues; d marks the D form. Side chains are listed from the residue outwards. Ends that are not written are not given here. * marks the point of attachment. C20 diacid = O=C(O)CCCCCCCCCCCCCCCCCCC(=O)*; γGlu = O=C(O)[C@H](CCC(=O)[*:2])N[*:1]; AEEA = NCCOCCOCC(=O)O; Aib = CC(C)(N)C(=O)O

B1: Example 23 (peptide)
peptide: Y[Aib]EGTFTSDK([AEEA-AEEA-γGlu-C20 diacid])SILLDKIAQ[Aib]AFIEYLIEGGPSSGAPPPS-NH2
modifications: N-terminus assumed
SMILES: CC[C@H](C)[C@H](NC(=O)[C@H](CCCCN)NC(=O)[C@H](CC(=O)O)NC(=O)[C@H](CC(C)C)NC(=O)[C@H](CC(C)C)NC(=O)[C@@H](NC(=O)[C@H](CO)NC(=O)[C@H](CCCCNC(=O)COCCOCCNC(=O)COCCOCCNC(=O)CC[C@H](NC(=O)CCCCCCCCCCCCCCCCCCC(=O)O)C(=O)O)NC(=O)[C@H](CC(=O)O)NC(=O)[C@H](CO)NC(=O)[C@@H](NC(=O)[C@H](Cc1ccccc1)NC(=O)[C@@H](NC(=O)CNC(=O)[C@H](CCC(=O)O)NC(=O)C(C)(C)NC(=O)[C@@H](N)Cc1ccc(O)cc1)[C@@H](C)O)[C@@H](C)O)[C@@H](C)CC)C(=O)N[C@@H](C)C(=O)N[C@@H](CCC(N)=O)C(=O)NC(C)(C)C(=O)N[C@@H](C)C(=O)N[C@@H](Cc1ccccc1)C(=O)N[C@H](C(=O)N[C@@H](CCC(=O)O)C(=O)N[C@@H](Cc1ccc(O)cc1)C(=O)N[C@@H](CC(C)C)C(=O)N[C@H](C(=O)N[C@@H](CCC(=O)O)C(=O)NCC(=O)NCC(=O)N1CCC[C@H]1C(=O)N[C@@H](CO)C(=O)N[C@@H](CO)C(=O)NCC(=O)N[C@@H](C)C(=O)N1CCC[C@H]1C(=O)N1CCC[C@H]1C(=O)N1CCC[C@H]1C(=O)N[C@@H](CO)C(N)=O)[C@@H](C)CC)[C@@H](C)CC
B2: Example 38 (peptide)
peptide: Y[Aib]EGTFTSDYSILLDKIAQ[Aib]AFIEYLIEK([AEEA-AEEA-γGlu-C20 diacid])GPSSGAPPPS-NH2
modifications: N-terminus assumed
SMILES: CC[C@H](C)[C@H](NC(=O)[C@H](CCCCN)NC(=O)[C@H](CC(=O)O)NC(=O)[C@H](CC(C)C)NC(=O)[C@H](CC(C)C)NC(=O)[C@@H](NC(=O)[C@H](CO)NC(=O)[C@H](Cc1ccc(O)cc1)NC(=O)[C@H](CC(=O)O)NC(=O)[C@H](CO)NC(=O)[C@@H](NC(=O)[C@H](Cc1ccccc1)NC(=O)[C@@H](NC(=O)CNC(=O)[C@H](CCC(=O)O)NC(=O)C(C)(C)NC(=O)[C@@H](N)Cc1ccc(O)cc1)[C@@H](C)O)[C@@H](C)O)[C@@H](C)CC)C(=O)N[C@@H](C)C(=O)N[C@@H](CCC(N)=O)C(=O)NC(C)(C)C(=O)N[C@@H](C)C(=O)N[C@@H](Cc1ccccc1)C(=O)N[C@H](C(=O)N[C@@H](CCC(=O)O)C(=O)N[C@@H](Cc1ccc(O)cc1)C(=O)N[C@@H](CC(C)C)C(=O)N[C@H](C(=O)N[C@@H](CCC(=O)O)C(=O)N[C@@H](CCCCNC(=O)COCCOCCNC(=O)COCCOCCNC(=O)CC[C@H](NC(=O)CCCCCCCCCCCCCCCCCCC(=O)O)C(=O)O)C(=O)NCC(=O)N1CCC[C@H]1C(=O)N[C@@H](CO)C(=O)N[C@@H](CO)C(=O)NCC(=O)N[C@@H](C)C(=O)N1CCC[C@H]1C(=O)N1CCC[C@H]1C(=O)N1CCC[C@H]1C(=O)N[C@@H](CO)C(N)=O)[C@@H](C)CC)[C@@H](C)CC
B3: Example 28 (peptide)
peptide: Y[Aib]EGTFTSDYSILLK([AEEA-AEEA-γGlu-C20 diacid])KIAQ[Aib]AFIEYLIEGGPSSGAPPPS-NH2
modifications: N-terminus assumed
SMILES: CC[C@H](C)[C@H](NC(=O)[C@H](CCCCN)NC(=O)[C@H](CCCCNC(=O)COCCOCCNC(=O)COCCOCCNC(=O)CC[C@H](NC(=O)CCCCCCCCCCCCCCCCCCC(=O)O)C(=O)O)NC(=O)[C@H](CC(C)C)NC(=O)[C@H](CC(C)C)NC(=O)[C@@H](NC(=O)[C@H](CO)NC(=O)[C@H](Cc1ccc(O)cc1)NC(=O)[C@H](CC(=O)O)NC(=O)[C@H](CO)NC(=O)[C@@H](NC(=O)[C@H](Cc1ccccc1)NC(=O)[C@@H](NC(=O)CNC(=O)[C@H](CCC(=O)O)NC(=O)C(C)(C)NC(=O)[C@@H](N)Cc1ccc(O)cc1)[C@@H](C)O)[C@@H](C)O)[C@@H](C)CC)C(=O)N[C@@H](C)C(=O)N[C@@H](CCC(N)=O)C(=O)NC(C)(C)C(=O)N[C@@H](C)C(=O)N[C@@H](Cc1ccccc1)C(=O)N[C@H](C(=O)N[C@@H](CCC(=O)O)C(=O)N[C@@H](Cc1ccc(O)cc1)C(=O)N[C@@H](CC(C)C)C(=O)N[C@H](C(=O)N[C@@H](CCC(=O)O)C(=O)NCC(=O)NCC(=O)N1CCC[C@H]1C(=O)N[C@@H](CO)C(=O)N[C@@H](CO)C(=O)NCC(=O)N[C@@H](C)C(=O)N1CCC[C@H]1C(=O)N1CCC[C@H]1C(=O)N1CCC[C@H]1C(=O)N[C@@H](CO)C(N)=O)[C@@H](C)CC)[C@@H](C)CC
B4: Example 26 (peptide)
peptide: Y[Aib]EGTFTSDYSIK([AEEA-AEEA-γGlu-C20 diacid])LDKIAQ[Aib]AFIEYLIEGGPSSGAPPPS-NH2
modifications: N-terminus assumed
SMILES: CC[C@H](C)[C@H](NC(=O)[C@H](CCCCN)NC(=O)[C@H](CC(=O)O)NC(=O)[C@H](CC(C)C)NC(=O)[C@H](CCCCNC(=O)COCCOCCNC(=O)COCCOCCNC(=O)CC[C@H](NC(=O)CCCCCCCCCCCCCCCCCCC(=O)O)C(=O)O)NC(=O)[C@@H](NC(=O)[C@H](CO)NC(=O)[C@H](Cc1ccc(O)cc1)NC(=O)[C@H](CC(=O)O)NC(=O)[C@H](CO)NC(=O)[C@@H](NC(=O)[C@H](Cc1ccccc1)NC(=O)[C@@H](NC(=O)CNC(=O)[C@H](CCC(=O)O)NC(=O)C(C)(C)NC(=O)[C@@H](N)Cc1ccc(O)cc1)[C@@H](C)O)[C@@H](C)O)[C@@H](C)CC)C(=O)N[C@@H](C)C(=O)N[C@@H](CCC(N)=O)C(=O)NC(C)(C)C(=O)N[C@@H](C)C(=O)N[C@@H](Cc1ccccc1)C(=O)N[C@H](C(=O)N[C@@H](CCC(=O)O)C(=O)N[C@@H](Cc1ccc(O)cc1)C(=O)N[C@@H](CC(C)C)C(=O)N[C@H](C(=O)N[C@@H](CCC(=O)O)C(=O)NCC(=O)NCC(=O)N1CCC[C@H]1C(=O)N[C@@H](CO)C(=O)N[C@@H](CO)C(=O)NCC(=O)N[C@@H](C)C(=O)N1CCC[C@H]1C(=O)N1CCC[C@H]1C(=O)N1CCC[C@H]1C(=O)N[C@@H](CO)C(N)=O)[C@@H](C)CC)[C@@H](C)CC
B5: Example 35 (peptide)
peptide: Y[Aib]EGTFTSDYSILLDKIAQ[Aib]AFIEYK([AEEA-AEEA-γGlu-C20 diacid])IEGGPSSGAPPPS-NH2
modifications: N-terminus assumed
SMILES: CC[C@H](C)[C@H](NC(=O)[C@H](CCCCN)NC(=O)[C@H](CC(=O)O)NC(=O)[C@H](CC(C)C)NC(=O)[C@H](CC(C)C)NC(=O)[C@@H](NC(=O)[C@H](CO)NC(=O)[C@H](Cc1ccc(O)cc1)NC(=O)[C@H](CC(=O)O)NC(=O)[C@H](CO)NC(=O)[C@@H](NC(=O)[C@H](Cc1ccccc1)NC(=O)[C@@H](NC(=O)CNC(=O)[C@H](CCC(=O)O)NC(=O)C(C)(C)NC(=O)[C@@H](N)Cc1ccc(O)cc1)[C@@H](C)O)[C@@H](C)O)[C@@H](C)CC)C(=O)N[C@@H](C)C(=O)N[C@@H](CCC(N)=O)C(=O)NC(C)(C)C(=O)N[C@@H](C)C(=O)N[C@@H](Cc1ccccc1)C(=O)N[C@H](C(=O)N[C@@H](CCC(=O)O)C(=O)N[C@@H](Cc1ccc(O)cc1)C(=O)N[C@@H](CCCCNC(=O)COCCOCCNC(=O)COCCOCCNC(=O)CC[C@H](NC(=O)CCCCCCCCCCCCCCCCCCC(=O)O)C(=O)O)C(=O)N[C@H](C(=O)N[C@@H](CCC(=O)O)C(=O)NCC(=O)NCC(=O)N1CCC[C@H]1C(=O)N[C@@H](CO)C(=O)N[C@@H](CO)C(=O)NCC(=O)N[C@@H](C)C(=O)N1CCC[C@H]1C(=O)N1CCC[C@H]1C(=O)N1CCC[C@H]1C(=O)N[C@@H](CO)C(N)=O)[C@@H](C)CC)[C@@H](C)CC
B6: Example 204 (peptide)
peptide: YXEGTXTSDXSIXLDEKAQXEFIXYLIEGGPSSGAPPPS
modifications: Aib2; αMeF(2F)6; 4Pal10; αMeL13; K17((2-[2-(2-Amino-ethoxy)-ethoxy]-acetyl)2-(γ-Glu)-CO-(CH2)16-CO2H); Aib20; D-Glu24; C-terminal NH2

The target in the first experiment is T1, human GLP-1 receptor (human, UniProt P43220 24-463).
T1 construct: whole, on cells; Used as crude membranes of stably transfected HEK293 cells; also called hGLP1R; hGLP-1R
As to the kind of experiment: SPA, [125I]-GLP-1 displacement, hGLP-1R membranes.
B1: the Ki was 6.32 nM.

B2 returned a Ki of 31.3 nM. On the same count and under the same terms, the value for Y[Aib]EGTFTSDYSILLDKIAQ[Aib]AFK([AEEA-AEEA-γGlu-C20 diacid])EYLIEGGPSSGAPPPS-NH2 [Example 33] was 361 nM; that for B3 was 21.1 nM; that for B4 was 4.22 nM. Turning to B5, the Ki came out at 54.6 nM. This Ki lies about 13-fold higher than the previous one.

A further experiment addresses T2, human GIP receptor (human, UniProt P48546 22-466).
T2 construct: whole, on cells; Used as crude membranes of stably transfected CHO cells; also called hGIPR
T2 sequence (looked up): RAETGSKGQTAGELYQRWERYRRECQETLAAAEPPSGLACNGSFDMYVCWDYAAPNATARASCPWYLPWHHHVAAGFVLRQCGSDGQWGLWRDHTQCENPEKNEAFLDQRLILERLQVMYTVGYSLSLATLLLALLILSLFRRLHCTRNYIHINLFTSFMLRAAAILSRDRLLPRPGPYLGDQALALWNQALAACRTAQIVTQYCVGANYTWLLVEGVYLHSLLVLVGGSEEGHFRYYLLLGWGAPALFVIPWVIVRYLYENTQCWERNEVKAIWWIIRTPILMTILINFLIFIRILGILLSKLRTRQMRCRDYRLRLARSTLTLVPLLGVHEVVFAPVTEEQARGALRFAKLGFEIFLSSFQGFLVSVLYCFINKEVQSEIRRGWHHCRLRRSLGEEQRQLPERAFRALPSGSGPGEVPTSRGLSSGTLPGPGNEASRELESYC
As to the kind of experiment: SPA, [125I]-GIP displacement, hGIPR membranes.
The molecule B6 registered a Ki of 0.0704 nM.

With B1, affinity was put at a Ki of 0.258 nM. With B2, the Ki was determined as 0.104 nM. The same measure, in the same setting: with Y[Aib]EGTFTSDYSILLDKIAQ[Aib]AFK([AEEA-AEEA-γGlu-C20 diacid])EYLIEGGPSSGAPPPS-NH2 [Example 33] the figure was 6.4 nM; with B3, 0.24 nM. B4 displayed a Ki of 0.176 nM. As for B5, the Ki amounted to 0.0358 nM.
